Earlier results in article PMC5266483.

Target: Lys14 (position 14, …)
Experiment: NMR
Settings: 37 °C; Transmembrane helix in DOPC

GGALWLALALALAKALALWLAGA [GWALP23-K14 (synthetic construct; L14K)]
pKa: 6.5
